The labels stand for the following.
B1: CPEB3 Ribozyme (parent)
chain: UAACAGGGGGCCACAGCAGAAGCGUUCACGUCGCAGCCCCUGUCAGAUUCUGGUGAAUCUGCGAAUUCUGCUGUAUAUCUC

The variants in this series derive from B1. As to the kind of experiment: self-cleavage, relative activity (ratio to wild type); higher = more cleavage; in vitro, sequencing. A digest of the protocol: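 CPEB3 self-cleaving ribozyme mutant libraries were made by rounds of error-prone PCR, barcoded, and transcribed in vitro with T7 RNA polymerase for 5 hours at 37°C. Cleavage occurred during transcription and a 15 min DNase I step before EDTA stop. RNAs were reverse transcribed with template switching and Illumina-sequenced, with DNA sequencing mapping barcodes to variants. Relative activity is the variant's cleaved/total read fraction divided by wild type's (minimum 5 reads), averaged across three batches.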
Turning to UAACAGGGGGCCACAGCAGAAGCGUUCGCGUCGCAGCCCCUGUCAGAUUCUGGUGAAUCUGCGAAUUCUGCUGUAUAUCCC [A28G U80C], the self-cleavage is 0.81.

As for UAAUAGGGGGCCACAGCAGAAGCGUUCACGUCGCAGCCCCUGUCGGAUUCUGGUGAAUCUGCGAAUUCUGCUGUAUAUCUC [C4U A45G], the self-cleavage worked out at 1.25.

Regarding UAACAGGGGGCCACAGCAGAAGCGUUCACGUCGCAGCCCCUGUCAGAUUCUGGUUAAUCUACGAAUUCUGCUGUAUAUCUC [G55U G61A], the self-cleavage came out at 0.6.

Regarding UAACAGGGGGCCACAGCAGAAGCGUCCACAUCGCAGCCCCUGUCAGAUUCUGGUGAAUCUGCGAAUUCUGCUGUAUAUCUC [U26C G30A], the self-cleavage was determined as 0.27.

Turning to UAACAGGGGGCCACAGCAGAAGCGUUCACGUCACAGCCCCUGUCAGAUUCAGGUGAAUCUGCGAAUUCUGCUGUAUAUCUC [G33A U51A], the self-cleavage amounted to 0.26.

Consider UAACAGGGGGCCACAGCAGAAGUGUUCACGUCGCUGCCCCUGUCAGAUUCUGGUGAAUCUGCGAAUUCUGCUGUAUAUCUC [C23U A35U], for which the self-cleavage stood at 0.16.

Turning to UAACAGGGGGCCACAGCAGAAGUGUUCACGUCGCGGCCCCUGUCAGAUUCUGGUGAAUCUGCGAAUUCUGCUGUAUAUCUC [C23U A35G], the self-cleavage was 0.95.

For the variant UAACAGGGGGCCACAGCACAAGCGUUCACGUCGCAGCCCCUGUCAGAUUCUGGUGAGUCUGCGAAUUCUGCUGUAUAUCUC [G19C A57G], the self-cleavage came to 0.23.

For the variant UAACAGGGGGCCACAGCAGAAGCGUUCACGUCGCAGCCCCUGUCAGAUUCCGGUGAAUCCGCGAAUUCUGCUGUAUAUCUC [U51C U60C], the self-cleavage came to 0.36.

Take AAACAGGGAGCCACAGCAGAAGCGUUCACGUCGCAGCCCCUGUCAGAUUCUGGUGAAUCUGCGAAUUCUGCUGUAUAUCUC [U1A G9A]: the self-cleavage came out at 0.28.

Take UAACAGGGGGCCACAGCAGAAGCGUUCACGUCGCAGCCCCUGUCUGAUUCUGGUGAAUCUGCGAACUCUGCUGUAUAUCUC [A45U U66C]: the self-cleavage was 0.27.

Take UAACAGGGGGCCACAGCAGAAGAGUUCACGUCGCUGCCCCUGUCAGAUUCUGGUGAAUCUGCGAAUUCUGCUGUAUAUCUC [C23A A35U]: the self-cleavage was 0.31.

As for UAACAGGGUGCCACAGCAGAAGCGUUCACGUCGCAACCCCUGUCAGAUUCUGGUGAAUCUGCGAAUUCUGCUGUAUAUCUC [G9U G36A], the self-cleavage stood at 0.15.

For the variant UAACAGGGGGCCACAGCAGCAGCGUUCACGUCGCUGCCCCUGUCAGAUUCUGGUGAAUCUGCGAAUUCUGCUGUAUAUCUC [A20C A35U], the self-cleavage came out at 0.17.

For UAACAGGGGGCCACAGCAGGAGCGUUCACGUCGCAGCCCCUGUCAGAUUCUGGUGAAUCUGCGAAUUCUGCGGUAUAUCUC [A20G U72G], the self-cleavage is 0.63.

In the case of UAACAGGGGGCCACAGCAGAAGCGUUCACGUCGCAGCCCCUGUCAGAUUCCGGUGCAUCUGCGAAUUCUGCUGUAUAUCUC [U51C A56C], the self-cleavage was 0.31.

As for UAACAGGUGGCCUCAGCAGAAGCGUUCACGUCGCAGCCCCUGUCAGAUUCUGGUGAAUCUGCGAAUUCUGCUGUAUAUCUC [G8U A13U], the self-cleavage came to 0.3.

With UAACAGGGGGCCACAGCAGAAGGGUUCACGUCGCAGCCCCUGUCAGAUUCUGGUGAAUCUGCGAAUUCUGCUGUAUACCUC [C23G U78C], the self-cleavage was 0.28.

Take UAACAGGGGGCCACAGCAGAAGCGUUCACGUUGCAGCCCCUGUCAGAUUCUGGUGAAUCUGCGAGUUCUGCUGUAUAUCUC [C32U A65G]: the self-cleavage worked out at 0.21.

As to UAACAUGGGGCCACAGCAGAAGCGUUCACGUCGCUGCCCCUGUCAGAUUCUGGUGAAUCUGCGAAUUCUGCUGUAUAUCUC [G6U A35U], the self-cleavage was found to be 0.36.

With UAACAGUGGGCCACAGCAGAAGCGUUCACGUCGCAGCCCCUGUCAGAUUCUGGUGAAUCUGCGCAUUCUGCUGUAUAUCUC [G7U A64C], the self-cleavage was 0.13.

As to UGACAGGGGGCCACAGCAGAAGCGUUCACGUCGCAGCCCCUGUCAGAUUCUGGUGUAUCUGCGAAUUCUGCUGUAUAUCUC [A2G A56U], the self-cleavage is 0.31.

Regarding UAACAGGGGGCCACAGCAGAAGCGUUCACGUCGCAGCCCCUGCCAGAUUCUGGUGAAUCUGCGAAUUCUGCAGUAUAUCUC [U43C U72A], the self-cleavage was found to be 0.4.

Consider UAACAGGGGGCCACAGCAGAAGCGUUCACGUCGCAGCCCCAGUCAGAUUCUGGUGAACCUGCGAAUUCUGCUGUAUAUCUC [U41A U58C], for which the self-cleavage stood at 0.23.

On to UAACAGGGGGCCACAGCAGAAGCGUUCACGUCGCAGCCCCUGUCAGAUUCUGGUGAAUCCUCGAAUUCUGCUGUAUAUCUC [U60C G61U], for which the self-cleavage stood at 0.26.

Regarding UAACAGGGGGCCACAGCAGAAGCGUUCACGUCGCAGCCCCUGUCGGAUUCUGGUGAAUCUGCGAAUUCUGCAGUAUAUCUC [A45G U72A], the self-cleavage was 0.62.

On to UAACAGGGGGCCACAGCAGAAUCGCUCACGUCGCAGCCCCUGUCAGAUUCUGGUGAAUCUGCGAAUUCUGCUGUAUAUCUC [G22U U25C], for which the self-cleavage stood at 0.2.

For the variant UAACAGGGGACCACAGCAGAAGCGUUCACGUCGCUGCCCCUGUCAGAUUCUGGUGAAUCUGCGAAUUCUGCUGUAUAUCUC [G10A A35U], the self-cleavage was 0.11.

Consider UAACAGGGGGCCACAGCAGAAGCGUUCACGUCGCAGCCCCCGUCAGAUUCUGGUGAAUCUGCGAAUUCCGCUGUAUAUCUC [U41C U69C], for which the self-cleavage was determined as 0.57.

On to UAACAGGGGGCCACAGCAGCAGCGUUCACGUCGCAGCCCCUGUCAGAUUCUGGUGAAUCUGUGAAUUCUGCUGUAUAUCUC [A20C C62U], for which the self-cleavage came out at 0.12.

Consider UAACAGGGGGCCACAGCAGAAGCGUUCACGUCGCAGCCCUUAUCAGAUUCUGGUGAAUCUGCGAAUUCUGCUGUAUAUCUC [C40U G42A], for which the self-cleavage amounted to 0.27.

For UAACAGGGGGCCACAGCAGAAGCGUUCACGUCGCAGCCCCUGUCAGAUUCUGGUGCAUCUGCGAAUUCCGCUGUAUAUCUC [A56C U69C], the self-cleavage was 0.12.

On to UAACAGGGGGCCACAGCAGAAGCGUUCACGUCGCAGCCCCUGUCAGAUUCUGGUGAAUCUGCGAAAUCUGCUGCAUAUCUC [U66A U74C], for which the self-cleavage was found to be 0.86.

As for UAAGAGGGGGCCACAGCAGAAGCGUUCACGUCGCAGCCCCUGUCAGAUUCUGGUGAAUCUGCGAAUUCCGCUGUAUAUCUC [C4G U69C], the self-cleavage amounted to 0.95.

Source of the values: the RNAGym collection of RNA variant scans (doi:10.1093/nar/gkz1192).
